Patent publication US20220332770A1 (UNIVERSITY OF RHODE ISLAND BOARD OF TRUSTEES, published 2022)

B1: FljB-HBc fusion protein, self-assembled into FH VLPs (other)
chain: MDIDPYKEFGASVELLSFLPSDFFPSIRDLLDTASALYREALESPEHCSPHHTALRQAILCWGELMNLATWVGSNLEDPAGGGGSGGGGSAQVINTNSLSLLTQNNLNKSQSALGTAIERLSSGLRINSAKDDAAGQAIANRFTANIKGLTQASRNANDGISIAQTTEGALNEINNNLQRVRELAVQSANSTNSQSDLDSIQAEITQRLNEIDRVSGQTQFNGVKVLAQDNTLTIQVGANDGETIDIDLKQINSQTLGLDSLNVQKAYDVKDTAVTTKAYANNGTTLDVSGLDDAAIKAATGGTNGTASVTGGAVKFDADNNKYFVTIGGFTGADAAKNGDYEVNVATDGTVTLAAGATKTTMPAGATTKTEVQELKDTPAVVSADAKNALIAGGVDATDANGAELVKMSYTDKNGKTIEGGYALKAGDKYYAADYDEATGAIKAKTTSYTAADGTTKTAANQLGGVDGKTEVVTIDGKTYNASKAAGHDFKAQPELAEAAAKTTENPLQKIDAALAQVDALRSDLGAVQNRFNSAITNLGNTVNNLSEARSRIEDSDYATEVSNMSRAQILQQAGTSVLAQANQVPQNVLSLLRGGGGSGGGGSSRELVVSYVNVNMGLKIRQLLWFHISCLTFGRETVLEYLVSFGVWIRTPPAYRPPNAPILSTLPETTVVLEHHHHHH

Columns and labels:
[1] = molecular target: murine TLR5 (HEK293 cells co-transfected with murine TLR5 and SEAP reporter gene) (murine) (UniProt Q9JLF7); assay: cell-based or functional assay
murine TLR5 (HEK293 cells co-transfected with murine TLR5 and SEAP reporter gene) (murine), sequence (Q9JLF7 27-859): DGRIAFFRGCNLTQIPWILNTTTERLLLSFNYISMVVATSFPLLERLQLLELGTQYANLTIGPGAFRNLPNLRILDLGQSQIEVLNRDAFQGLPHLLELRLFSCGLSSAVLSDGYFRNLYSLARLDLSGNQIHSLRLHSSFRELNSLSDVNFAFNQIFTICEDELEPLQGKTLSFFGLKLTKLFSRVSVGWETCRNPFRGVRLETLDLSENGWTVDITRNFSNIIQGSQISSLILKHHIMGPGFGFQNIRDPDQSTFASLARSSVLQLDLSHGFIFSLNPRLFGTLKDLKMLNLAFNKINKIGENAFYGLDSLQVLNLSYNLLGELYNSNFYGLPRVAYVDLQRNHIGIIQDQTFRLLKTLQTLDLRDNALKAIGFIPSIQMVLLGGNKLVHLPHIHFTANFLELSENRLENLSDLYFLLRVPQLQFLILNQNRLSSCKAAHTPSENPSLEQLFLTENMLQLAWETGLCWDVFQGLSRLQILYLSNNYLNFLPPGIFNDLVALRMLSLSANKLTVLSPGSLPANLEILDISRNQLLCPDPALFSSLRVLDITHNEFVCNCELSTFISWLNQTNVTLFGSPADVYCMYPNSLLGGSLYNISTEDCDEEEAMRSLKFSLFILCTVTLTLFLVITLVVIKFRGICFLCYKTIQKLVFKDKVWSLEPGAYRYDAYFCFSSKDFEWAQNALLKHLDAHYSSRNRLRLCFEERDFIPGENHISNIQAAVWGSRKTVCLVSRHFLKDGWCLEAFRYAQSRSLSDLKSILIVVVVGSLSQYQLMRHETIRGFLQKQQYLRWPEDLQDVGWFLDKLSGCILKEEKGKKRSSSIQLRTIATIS

[2] = molecular target: murine TLR5 (HEK293 cells co-transfected with murine TLR5 and SEAP reporter gene) (murine, UniProt Q9JLF7 27-859); assay: cell-based or functional assay
murine TLR5 (HEK293 cells co-transfected with murine TLR5 and SEAP reporter gene), sequence (Q9JLF7 27-859): as above

| Molecule | lowest concentration to significantly activate TLR5 (SEAP reporter, OD620nm) [1] | fold reduction of TLR5 activation ability against FLA-ST [2] | fold reduction of TLR5 activation ability against FljB [2] |
| --- | --- | --- | --- |
| Recombinant FljB (phase 2 flagellin of S. Typhimurium strain LT2) (from UniProt P52616 1-506) (ligand) | 8 pM |  |  |
| FLA-ST (ultrapure FliC purified from S. Typhimurium, Invivogen) (from UniProt P06179 2-495) (ligand) | 40 pM |  |  |
| B1 |  | 25 fold | > 100 fold |
